Among the data in patent US20240132578A1 are Primary Neutralization Index (B cell culture supernatant) and IC50 neutralization values, retold here.

Where “and” joins values, the source holds several entries; their conditions need not be identical. Equal values may be shown once.

Holding throughout (assay): cell-based or functional assay
For assay [1], the target named is HIV-1 Env of pseudovirus MGRM-C-26 (HIV-1).
For assay [2], the target named is HIV-1 Env of pseudovirus JRCSF (HIV-1) (UniProt P20871).
Assay [3] addresses HIV-1 Env of pseudovirus 92TH021 (HIV-1).
In assay [4] the target is HIV-1 92RW020 envelope glycoprotein (Env) on pseudovirus (HIV-1).
Assay [5] has as its target HIV-1 MGRM-C-027 envelope glycoprotein (Env) on pseudovirus (HIV-1).
Assay [6] addresses HIV-1 92BR020 envelope glycoprotein (Env) on pseudovirus (HIV-1).
The target of assay [7] is HIV-1 NL43 envelope glycoprotein (Env) on pseudovirus (HIV-1).
In assay [8] the target is HIV-1 APV13 envelope glycoprotein (Env) on pseudovirus (HIV-1).
The target of assay [9] is HIV-1 APV6 envelope glycoprotein (Env) on pseudovirus (HIV-1).
The target of assay [10] is HIV-1 94UG103 envelope glycoprotein (Env) on pseudovirus (HIV-1).
The target in assay [11] is HIV-1 MGRM-C-026 envelope glycoprotein (Env) on pseudovirus (HIV-1).
For assay [12], the target named is HIV-1 MGRM-C-028 envelope glycoprotein (Env) on pseudovirus (HIV-1).
The target of assay [13] is HIV-1 93UG077 envelope glycoprotein (Env) on pseudovirus (HIV-1).
Assay [14] has as its target HIV-1 JRCSF envelope glycoprotein (Env) on pseudovirus (HIV-1) (UniProt P20871).
Assay [15] has as its target HIV-1 MGRM-A-010 envelope glycoprotein (Env) on pseudovirus (HIV-1).
The target of assay [16] is HIV-1 93IN905 envelope glycoprotein (Env) on pseudovirus (HIV-1).
Assay [17] concerns the target HIV-1 APV17 envelope glycoprotein (Env) on pseudovirus (HIV-1).
In assay [18] the target is HIV-1 JRFL envelope glycoprotein (Env) on pseudovirus (HIV-1).
Assay [19] concerns the target HIV-1 Env of pseudovirus 94UG103 (HIV-1).
For assay [20], the target named is HIV-1 Env of pseudovirus 92BR020 (HIV-1).

Sequence of PGT-136 monoclonal antibody (5329_C19; 5366_P21) (VH): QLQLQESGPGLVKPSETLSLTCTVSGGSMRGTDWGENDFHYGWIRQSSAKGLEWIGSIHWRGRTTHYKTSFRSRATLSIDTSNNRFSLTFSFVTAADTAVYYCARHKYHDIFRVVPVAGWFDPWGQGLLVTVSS
Sequence of PGT-136 monoclonal antibody (5329_C19; 5366_P21) (VL): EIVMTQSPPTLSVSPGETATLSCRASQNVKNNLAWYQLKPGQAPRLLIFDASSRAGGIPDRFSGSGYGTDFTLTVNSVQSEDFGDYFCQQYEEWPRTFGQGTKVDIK

For the substance “Antibody of B cell culture well 5117_E22 (labelled PGT-133 in Table 26)”, the Primary Neutralization Index (B cell culture supernatant) in [1] is 3.4; in [2], 3.6; in [3] it was 42.5.

“PGT-136 monoclonal antibody (5329_C19; 5366_P21)”: the IC50 neutralization is 0.738 µg/mL in [4]; more than 10 µg/mL in assay [5]; more than 10 µg/mL in assay [6]; more than 10 µg/mL in assay [7]; more than 10 µg/mL in assay [8]; more than 10 µg/mL in [9]. The IC50 neutralization in [10] was more than 10 µg/mL; in [11] it was 0.0065 µg/mL; in [12], more than 10 µg/mL; in assay [13] it was more than 10 µg/mL; in assay [14], more than 10 µg/mL; in assay [15], more than 10 µg/mL. For the same substance, the IC50 neutralization in assay [16] was 0.0135 µg/mL; in [17], more than 10 µg/mL; in assay [18], more than 10 µg/mL.

“PGT-122 (B cell culture well 4877_D15) (antibody)”: the Primary Neutralization Index (B cell culture supernatant) in [1] was 37.5; in assay [19], 1.3; in assay [2], 2.3; in assay [20] it was 5.4.

As for PGT-122 monoclonal antibody (4877_D15), the IC50 neutralization in assay [4] is 0.0072 µg/mL; in assay [5], 0.0388 µg/mL; in [6], 0.0337 µg/mL; in [7], more than 10 µg/mL; in assay [8] it was 0.992 µg/mL; in [9], 0.0851 µg/mL. Besides, the IC50 neutralization worked out at 1.46 µg/mL in [10]; 0.0089 µg/mL in assay [11]; 2.06 µg/mL in assay [12]; 0.191 µg/mL in [13]; 0.0727 µg/mL in [14]; 1.68 µg/mL in [15]. Also, the figures for the IC50 neutralization in assay [16], in assay [17] and in [18] were 0.0138 µg/mL, 0.522 µg/mL and 0.0471 µg/mL, respectively.

As to “PGT-135 monoclonal antibody (5343_B08; 5344_E16)”, the IC50 neutralization in [4] is 0.157 µg/mL; in [5], more than 10 µg/mL; in assay [6] it was 0.104 µg/mL; in assay [7], 6.79 µg/mL; in [8], 0.545 µg/mL; in assay [9] it was more than 10 µg/mL. Further, the IC50 neutralization in assay [10] was more than 10 µg/mL; in [11], 0.0123 µg/mL; in assay [12], 2.16 µg/mL; in [13], more than 10 µg/mL; in assay [14], 0.113 µg/mL; in assay [15], more than 10 µg/mL. The IC50 neutralization in [16] is 0.0183 µg/mL; in [17], more than 10 µg/mL; in [18], more than 10 µg/mL.

As to “PGT-121 (B cell culture wells 4838_L06 and 4873_E03) (antibody)”, the Primary Neutralization Index (B cell culture supernatant) is 996 and 371 in [1]; 1.4 and 0.8 in assay [19]; 3.2 and 2.2 in assay [2]; 4.9 and 3.6 in assay [20].

On to “Antibody of B cell culture well 5113_D22 (labelled PGT-132 in Table 26)”, for which the Primary Neutralization Index (B cell culture supernatant) stood at 6 in assay [1], 3 in assay [2] and 51 in [3].
